Laboratory results from patent publication US20140087995A1 (published 2014).
Numbered stars: 1 amine (or outer) side, 2 acyl side, 3 side chain; on linkers, the order of the positions; unused ones are H or OH. Bridge positions count the residues as written; N and C are the ends. Side chains are listed from the residue outwards. Ends that are not written are not given here. * marks the point of attachment. C20 diacid = O=C(O)CCCCCCCCCCCCCCCCCCC(=O)*; γGlu = O=C(O)[C@H](CCC(=O)[*:2])N[*:1]; AEEA = NCCOCCOCC(=O)O

Experiments:
rat calcitonin receptor [1] = target: T1, rat calcitonin receptor (rat, UniProt P32214 25-516); experiment: SPA competition with 125I-calcitonin, membranes of BHK cells with rat calcitonin receptor (Assay VIII)
T1 construct: whole, on cells; also called rCTR; rat calcitonin (a) receptor
T1 sequence (looked up): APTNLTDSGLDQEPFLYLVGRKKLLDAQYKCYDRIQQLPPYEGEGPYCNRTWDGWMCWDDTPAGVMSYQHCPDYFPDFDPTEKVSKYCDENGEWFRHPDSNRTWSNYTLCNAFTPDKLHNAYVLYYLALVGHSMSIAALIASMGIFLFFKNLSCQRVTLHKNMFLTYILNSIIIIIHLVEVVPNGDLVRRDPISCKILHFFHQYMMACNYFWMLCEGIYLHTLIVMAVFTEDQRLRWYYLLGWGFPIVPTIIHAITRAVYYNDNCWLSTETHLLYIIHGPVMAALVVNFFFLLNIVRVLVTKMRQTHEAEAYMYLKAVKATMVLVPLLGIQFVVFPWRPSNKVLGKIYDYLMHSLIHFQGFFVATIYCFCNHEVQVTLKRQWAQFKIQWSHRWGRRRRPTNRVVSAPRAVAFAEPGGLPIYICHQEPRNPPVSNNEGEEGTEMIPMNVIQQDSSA

[2] = target: T2, rat amylin receptor (rat calcitonin receptor + rat RAMP 3) (rat, UniProt P32214 25-516; Q9JJ73 23-147); experiment: SPA competition with 125I-rat amylin, membranes of BHK cells with rat calcitonin receptor + rat RAMP3 (Assay VI)
T2 construct: whole, on cells; also called rAmylin-R; rat amylin 3(a) receptor
T2 sequence (looked up) 1: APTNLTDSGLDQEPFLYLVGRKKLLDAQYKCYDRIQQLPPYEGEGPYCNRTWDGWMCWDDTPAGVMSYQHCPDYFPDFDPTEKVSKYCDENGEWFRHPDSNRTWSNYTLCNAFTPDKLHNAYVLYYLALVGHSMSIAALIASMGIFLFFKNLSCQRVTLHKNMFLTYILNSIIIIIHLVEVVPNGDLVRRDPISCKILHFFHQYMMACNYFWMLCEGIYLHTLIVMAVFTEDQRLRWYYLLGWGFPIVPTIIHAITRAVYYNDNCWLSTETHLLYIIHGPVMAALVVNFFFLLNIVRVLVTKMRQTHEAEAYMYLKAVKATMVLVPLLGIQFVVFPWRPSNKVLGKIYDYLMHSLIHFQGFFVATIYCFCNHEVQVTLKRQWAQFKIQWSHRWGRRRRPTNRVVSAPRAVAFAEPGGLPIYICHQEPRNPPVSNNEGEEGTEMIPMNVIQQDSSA
T2 sequence (looked up) 2: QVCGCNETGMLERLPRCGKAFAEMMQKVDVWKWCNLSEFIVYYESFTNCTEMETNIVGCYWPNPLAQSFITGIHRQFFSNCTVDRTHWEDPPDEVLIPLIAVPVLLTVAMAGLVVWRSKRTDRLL

rat calcitonin receptor [3] = target: T1, rat calcitonin receptor; experiment: ratio of binding IC50s: rat calcitonin receptor over rat amylin receptor (reference)
[4] = target: T3, human calcitonin receptor (human, UniProt P30988 25-474); experiment: ratio of binding IC50s: human calcitonin receptor over human amylin receptor (reference)
T3 construct: whole, on cells; also called hCTR; hCT
T3 sequence (looked up): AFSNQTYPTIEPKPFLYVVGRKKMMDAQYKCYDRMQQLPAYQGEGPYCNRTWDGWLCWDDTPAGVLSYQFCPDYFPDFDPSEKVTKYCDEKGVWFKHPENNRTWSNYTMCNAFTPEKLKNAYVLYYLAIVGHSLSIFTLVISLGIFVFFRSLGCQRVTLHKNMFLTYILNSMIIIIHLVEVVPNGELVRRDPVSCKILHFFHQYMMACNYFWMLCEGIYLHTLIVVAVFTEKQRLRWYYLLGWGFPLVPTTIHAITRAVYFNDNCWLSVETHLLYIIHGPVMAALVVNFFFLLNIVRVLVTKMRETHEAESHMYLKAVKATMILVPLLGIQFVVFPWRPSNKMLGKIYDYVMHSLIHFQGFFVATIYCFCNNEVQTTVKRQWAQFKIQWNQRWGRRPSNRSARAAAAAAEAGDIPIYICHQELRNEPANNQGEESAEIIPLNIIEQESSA
Summary of the method: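 IC₅₀ values were derived by one-site competition analysis of SPA counts. Cell membranes (35 ng/μL) with SPA beads were incubated with test compounds for 120 min at 25° C in Hepes buffer, pH 7.4, containing CaCl2, MgCl₂, OA and Tween20.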

Binder | IC50 (rat calcitonin receptor [1]) [nM] | IC50 [2] [nM] | Ratio rCT/rAmylin binding (rat calcitonin receptor [3]) | Ratio hCT/hAmylin binding [4]
K([AEEA-γGlu-C20 diacid])CNTATCATQRLAGFLRHSSPNFGAIPSSTPVGSNTY-NH2 (disulfide 2-7; N-terminus assumed; SMILES CC[C@H](C)[C@H](NC(=O)[C@H](C)NC(=O)CNC(=O)[C@H](Cc1ccccc1)NC(=O)[C@H](CC(N)=O)NC(=O)[C@@H]1CCCN1C(=O)[C@H](CO)NC(=O)[C@H](CO)NC(=O)[C@H](Cc1c[nH]cn1)NC(=O)[C@H](CCCNC(=N)N)NC(=O)[C@H](CC(C)C)NC(=O)[C@H](Cc1ccccc1)NC(=O)CNC(=O)[C@H](C)NC(=O)[C@H](CC(C)C)NC(=O)[C@H](CCCNC(=N)N)NC(=O)[C@H](CCC(N)=O)NC(=O)[C@@H](NC(=O)[C@H](C)NC(=O)[C@@H]1CSSC[C@H](NC(=O)[C@@H](N)CCCCNC(=O)COCCOCCNC(=O)CC[C@H](NC(=O)CCCCCCCCCCCCCCCCCCC(=O)O)C(=O)O)C(=O)N[C@@H](CC(N)=O)C(=O)N[C@@H]([C@@H](C)O)C(=O)N[C@@H](C)C(=O)N[C@@H]([C@@H](C)O)C(=O)N1)[C@@H](C)O)C(=O)N1CCC[C@H]1C(=O)N[C@@H](CO)C(=O)N[C@@H](CO)C(=O)N[C@H](C(=O)N1CCC[C@H]1C(=O)N[C@H](C(=O)NCC(=O)N[C@@H](CO)C(=O)N[C@@H](CC(N)=O)C(=O)N[C@H](C(=O)N[C@@H](Cc1ccc(O)cc1)C(N)=O)[C@@H](C)O)C(C)C)[C@@H](C)O, synthetic analogue of human amylin; also called compound 71) | 44.8 | 0.276 | 162 | 32
K([AEEA-γGlu-C20 diacid])CNTATCATQRLAHFLRHSSPNFGAIPSSTNVGPNTY-NH2 (disulfide 2-7; N-terminus assumed; SMILES CC[C@H](C)[C@H](NC(=O)[C@H](C)NC(=O)CNC(=O)[C@H](Cc1ccccc1)NC(=O)[C@H](CC(N)=O)NC(=O)[C@@H]1CCCN1C(=O)[C@H](CO)NC(=O)[C@H](CO)NC(=O)[C@H](Cc1c[nH]cn1)NC(=O)[C@H](CCCNC(=N)N)NC(=O)[C@H](CC(C)C)NC(=O)[C@H](Cc1ccccc1)NC(=O)[C@H](Cc1c[nH]cn1)NC(=O)[C@H](C)NC(=O)[C@H](CC(C)C)NC(=O)[C@H](CCCNC(=N)N)NC(=O)[C@H](CCC(N)=O)NC(=O)[C@@H](NC(=O)[C@H](C)NC(=O)[C@@H]1CSSC[C@H](NC(=O)[C@@H](N)CCCCNC(=O)COCCOCCNC(=O)CC[C@H](NC(=O)CCCCCCCCCCCCCCCCCCC(=O)O)C(=O)O)C(=O)N[C@@H](CC(N)=O)C(=O)N[C@@H]([C@@H](C)O)C(=O)N[C@@H](C)C(=O)N[C@@H]([C@@H](C)O)C(=O)N1)[C@@H](C)O)C(=O)N1CCC[C@H]1C(=O)N[C@@H](CO)C(=O)N[C@@H](CO)C(=O)N[C@H](C(=O)N[C@@H](CC(N)=O)C(=O)N[C@H](C(=O)NCC(=O)N1CCC[C@H]1C(=O)N[C@@H](CC(N)=O)C(=O)N[C@H](C(=O)N[C@@H](Cc1ccc(O)cc1)C(N)=O)[C@@H](C)O)C(C)C)[C@@H](C)O, synthetic analogue of human amylin; also called compound 68) | 28.5 | 0.234 | 122 | 64.4
K([AEEA-γGlu-C20 diacid])CNTATCATQRLAHFLRHSSPNFGAIPSSTPVGSNTY-NH2 (disulfide 2-7; N-terminus assumed; SMILES CC[C@H](C)[C@H](NC(=O)[C@H](C)NC(=O)CNC(=O)[C@H](Cc1ccccc1)NC(=O)[C@H](CC(N)=O)NC(=O)[C@@H]1CCCN1C(=O)[C@H](CO)NC(=O)[C@H](CO)NC(=O)[C@H](Cc1c[nH]cn1)NC(=O)[C@H](CCCNC(=N)N)NC(=O)[C@H](CC(C)C)NC(=O)[C@H](Cc1ccccc1)NC(=O)[C@H](Cc1c[nH]cn1)NC(=O)[C@H](C)NC(=O)[C@H](CC(C)C)NC(=O)[C@H](CCCNC(=N)N)NC(=O)[C@H](CCC(N)=O)NC(=O)[C@@H](NC(=O)[C@H](C)NC(=O)[C@@H]1CSSC[C@H](NC(=O)[C@@H](N)CCCCNC(=O)COCCOCCNC(=O)CC[C@H](NC(=O)CCCCCCCCCCCCCCCCCCC(=O)O)C(=O)O)C(=O)N[C@@H](CC(N)=O)C(=O)N[C@@H]([C@@H](C)O)C(=O)N[C@@H](C)C(=O)N[C@@H]([C@@H](C)O)C(=O)N1)[C@@H](C)O)C(=O)N1CCC[C@H]1C(=O)N[C@@H](CO)C(=O)N[C@@H](CO)C(=O)N[C@H](C(=O)N1CCC[C@H]1C(=O)N[C@H](C(=O)NCC(=O)N[C@@H](CO)C(=O)N[C@@H](CC(N)=O)C(=O)N[C@H](C(=O)N[C@@H](Cc1ccc(O)cc1)C(N)=O)[C@@H](C)O)C(C)C)[C@@H](C)O, synthetic analogue of human amylin; also called compound 61) | 33.4 | 0.842 | 39.7 | 66.7
K([AEEA-γGlu-C20 diacid])CNTATCATQRLAHFLRHSSPNFGAIPSSTNVGHNTY-NH2 (disulfide 2-7; N-terminus assumed; SMILES CC[C@H](C)[C@H](NC(=O)[C@H](C)NC(=O)CNC(=O)[C@H](Cc1ccccc1)NC(=O)[C@H](CC(N)=O)NC(=O)[C@@H]1CCCN1C(=O)[C@H](CO)NC(=O)[C@H](CO)NC(=O)[C@H](Cc1c[nH]cn1)NC(=O)[C@H](CCCNC(=N)N)NC(=O)[C@H](CC(C)C)NC(=O)[C@H](Cc1ccccc1)NC(=O)[C@H](Cc1c[nH]cn1)NC(=O)[C@H](C)NC(=O)[C@H](CC(C)C)NC(=O)[C@H](CCCNC(=N)N)NC(=O)[C@H](CCC(N)=O)NC(=O)[C@@H](NC(=O)[C@H](C)NC(=O)[C@@H]1CSSC[C@H](NC(=O)[C@@H](N)CCCCNC(=O)COCCOCCNC(=O)CC[C@H](NC(=O)CCCCCCCCCCCCCCCCCCC(=O)O)C(=O)O)C(=O)N[C@@H](CC(N)=O)C(=O)N[C@@H]([C@@H](C)O)C(=O)N[C@@H](C)C(=O)N[C@@H]([C@@H](C)O)C(=O)N1)[C@@H](C)O)C(=O)N1CCC[C@H]1C(=O)N[C@@H](CO)C(=O)N[C@@H](CO)C(=O)N[C@H](C(=O)N[C@@H](CC(N)=O)C(=O)N[C@H](C(=O)NCC(=O)N[C@@H](Cc1c[nH]cn1)C(=O)N[C@@H](CC(N)=O)C(=O)N[C@H](C(=O)N[C@@H](Cc1ccc(O)cc1)C(N)=O)[C@@H](C)O)C(C)C)[C@@H](C)O, synthetic analogue of human amylin; also called compound 80) | 60.4 | 1.67 | 36.2 | 68.1
K([AEEA-γGlu-C20 diacid])CNTATCATQRLAHFLRHSSPNFGAIPSSTNVGRNTY-NH2 (disulfide 2-7; N-terminus assumed; SMILES CC[C@H](C)[C@H](NC(=O)[C@H](C)NC(=O)CNC(=O)[C@H](Cc1ccccc1)NC(=O)[C@H](CC(N)=O)NC(=O)[C@@H]1CCCN1C(=O)[C@H](CO)NC(=O)[C@H](CO)NC(=O)[C@H](Cc1c[nH]cn1)NC(=O)[C@H](CCCNC(=N)N)NC(=O)[C@H](CC(C)C)NC(=O)[C@H](Cc1ccccc1)NC(=O)[C@H](Cc1c[nH]cn1)NC(=O)[C@H](C)NC(=O)[C@H](CC(C)C)NC(=O)[C@H](CCCNC(=N)N)NC(=O)[C@H](CCC(N)=O)NC(=O)[C@@H](NC(=O)[C@H](C)NC(=O)[C@@H]1CSSC[C@H](NC(=O)[C@@H](N)CCCCNC(=O)COCCOCCNC(=O)CC[C@H](NC(=O)CCCCCCCCCCCCCCCCCCC(=O)O)C(=O)O)C(=O)N[C@@H](CC(N)=O)C(=O)N[C@@H]([C@@H](C)O)C(=O)N[C@@H](C)C(=O)N[C@@H]([C@@H](C)O)C(=O)N1)[C@@H](C)O)C(=O)N1CCC[C@H]1C(=O)N[C@@H](CO)C(=O)N[C@@H](CO)C(=O)N[C@H](C(=O)N[C@@H](CC(N)=O)C(=O)N[C@H](C(=O)NCC(=O)N[C@@H](CCCNC(=N)N)C(=O)N[C@@H](CC(N)=O)C(=O)N[C@H](C(=O)N[C@@H](Cc1ccc(O)cc1)C(N)=O)[C@@H](C)O)C(C)C)[C@@H](C)O, synthetic analogue of human amylin; also called compound 84) | 477 | 5.05 | 94.3 | 120
